Source: patent publication US20240016892A1 (SHATTUCK LABS, published 2024)

Key:
CHOK1/mLTβR = target: T1, CHOK1/mLTβR (mouse, UniProt P50284); experiment: flow cytometry on CHOK1/mLTβR cells
T1 construct: expressed on the surface of stably transfected CHO-K1 cells; also called cell surface mouse LTβR on CHO-K1/mLTβR cells

murine recombinant PVR = target: T2, murine recombinant PVR (mouse); experiment: ELISA: capture mCD115/PVR (so in the source); detection anti-Fc-HRP
T2 construct: also called mouse PVR

murine recombinant HVEM = target: T3, murine recombinant HVEM (mouse, UniProt Q80WM9 39-206); experiment: ELISA on recombinant murine targets
T3 construct: also called mouse HVEM
T3 sequence (looked up): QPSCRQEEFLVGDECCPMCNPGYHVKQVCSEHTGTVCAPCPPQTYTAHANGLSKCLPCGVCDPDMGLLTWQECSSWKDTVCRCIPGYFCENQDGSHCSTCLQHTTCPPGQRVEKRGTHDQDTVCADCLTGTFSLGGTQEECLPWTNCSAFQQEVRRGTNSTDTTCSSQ

anti-H&L = target: T4, anti-H&L; experiment: ELISA: capture anti-H&L; detection anti-Fc-HRP
T4 construct: also called capture antibody of the Fc ELISA panel

murine recombinant LTβR = target: T5, murine recombinant LTβR (mouse, UniProt P50284 31-223); experiment: ELISA: capture mLTβR-His; detection anti-mLIGHT-Bio
T5 construct: also called mouse LTβR; printed LOUR
T5 sequence (P50284 31-223): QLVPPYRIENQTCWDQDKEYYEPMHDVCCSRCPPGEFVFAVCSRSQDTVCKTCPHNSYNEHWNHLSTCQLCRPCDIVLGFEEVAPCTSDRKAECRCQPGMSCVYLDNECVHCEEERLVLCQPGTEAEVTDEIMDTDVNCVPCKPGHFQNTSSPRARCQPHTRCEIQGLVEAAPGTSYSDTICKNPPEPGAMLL

mouse CD47-Fc = target: T6, mouse CD47-Fc (mouse, UniProt Q61735 19-140, limits assumed); experiment: MSD dual-binding sandwich: coat mCD47-Fc (Acro); detect m41BB-His (Acro); anti-His Biotin + Streptavidin Sulfo
T6 construct: not shown: Fc; not described
T6 sequence (looked up): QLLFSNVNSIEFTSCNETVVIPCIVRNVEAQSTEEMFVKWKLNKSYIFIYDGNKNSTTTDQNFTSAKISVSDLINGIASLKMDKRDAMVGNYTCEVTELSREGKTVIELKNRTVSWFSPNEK
Protocol: To understand whether the mouse SIRPα-Fc-4-1BBL chimeric protein can contemporaneously bind to mouse 4-1BB and CD47, mouse CD47-Fc was coated on plates and increasing amounts of the mSIRPα-Fc-4-1BBL, or PD-1-Fc-4-1BBL chimeric proteins were added to the plates for capture by the plate-bound mouse CD47-Fc. The PD-1-Fc-4-1BBL chimeric protein was used as a negative control. Then, mouse 4-1BB-His was added to the plate for capture by any chimeric protein, which was captured in turn by the mouse CD47-Fc protein. An anti-His-biotin and streptavidin-SULFO-TAG were used for detection. Binding was assayed using an electrochemiluminescence (ECL) readout.

mouse 4-1BB-His = target: T7, mouse 4-1BB-His (mouse, UniProt P20334 24-187); experiment: MSD: coat m41BB-His (Acro); detection anti-mouse Sulfo (MSD)
T7 construct: not shown: His tag
T7 sequence (looked up): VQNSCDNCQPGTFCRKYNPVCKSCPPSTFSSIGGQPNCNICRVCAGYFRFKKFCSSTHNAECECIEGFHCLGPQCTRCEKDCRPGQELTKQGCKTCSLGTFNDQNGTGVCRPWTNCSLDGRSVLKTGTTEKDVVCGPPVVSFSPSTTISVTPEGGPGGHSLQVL
Protocol: (§1) Mouse 4-1BB-His was coated on plates and increasing amounts of the mSIRPα-Fc-4-1BBL, or mSIRPα-Fc-CD40L chimeric proteins were added to the plates for capture by the plate-bound mouse 4-1BB-His. The mSIRPα-Fc-CD40L chimeric protein was used as a negative control for binding to mouse 4-1BB. Binding of the chimeric proteins to 4-1BB-His was detected using an anti-mouse-SULFO-TAG antibody. Binding was assayed using an electrochemiluminescence (ECL) readout.

mouse CD47-His = target: T8, mouse CD47-His (mouse, UniProt Q61735 19-140, limits assumed); experiment: MSD: coat mCD47-His (Acro); detection anti-mouse Sulfo (MSD)
T8 construct: not shown: His tag
T8 sequence (looked up): T6 sequence (looked up)
Protocol: as §1, with “CD47-His” for “4-1BB-His”, “mSIRPα-Fc-4-1BBL” for “mSIRPα-Fc-4-1BBL,”, “CD47-His.” for “4-1BB-His.”, “positive” for “negative”, “CD47.” for “4-1BB.”, “anti-mouse SULFO-TAG” for “anti-mouse-SULFO-TAG”

T1 sequence (P50284 31-415 limits assumed): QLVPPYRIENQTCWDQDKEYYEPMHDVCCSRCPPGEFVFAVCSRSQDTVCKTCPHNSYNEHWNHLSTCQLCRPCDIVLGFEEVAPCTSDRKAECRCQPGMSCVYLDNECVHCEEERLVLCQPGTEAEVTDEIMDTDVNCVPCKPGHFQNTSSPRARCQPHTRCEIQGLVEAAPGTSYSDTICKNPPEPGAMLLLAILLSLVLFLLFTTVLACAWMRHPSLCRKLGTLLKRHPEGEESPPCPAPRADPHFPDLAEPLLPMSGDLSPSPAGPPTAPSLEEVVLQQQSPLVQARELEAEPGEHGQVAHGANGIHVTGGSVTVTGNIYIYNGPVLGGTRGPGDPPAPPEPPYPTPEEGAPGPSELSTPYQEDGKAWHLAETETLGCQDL

B1: mouse TIGIT-Fc-LIGHT chimeric protein (Fc fusion)
chain: TIDTKRNISAEEGGSVILQCHFSSDTAEVTQVDWKQQDQLLAIYSVDLGWHVASVFSDRVVPGPSLGLTFQSLTMNDTGEYFCTYHTYPGGIYKGRIFLKVQESSDDRNGLAQFQTAPLGVPRDCGCKPCICTVPEVSSVFIFPPKPKDVLTITLTPKVTCVVVDISKDDPEVQFSWFVDDVEVHTAQTQPREEQFNSTFRSVSELPIMHQDWLNGKEFKCRVNSAAFPAPIEKTISKTKGRPKAPQVYTIPPPKEQMAKDKVSLTCMITDFFPEDITVEWQWNGQPAENYKNTQPIMDTDGSYFVYSKLNVQKSNWEAGNTFTCSVLHEGLHNHHTEKSLSHSPGKIEGRMDLHQRLGDIVAHLPDGGKGSWEKLIQDQRSHQANPAAHLTGANASLIGIGGPLLWETRLGLAFLRGLTYHDGALVTMEPGYYYVYSKVQLSGVGCPQGLANGLPITHGLYKRTSRYPKELELLVSRRSPCGRANSSRVWWDSSFLGGVVHLEAGEEVVVRVPGNRLVRPRDGTRSYFGAFMV
notes: also called mTIGIT-Fc-LIGHT; murine TIGIT-Fc-LIGHT chimeric protein
CHOK1/mLTβR
  binding result: binds
Murine recombinant PVR
  EC50 (read off the curve): ~5 nM
Murine recombinant HVEM
  binding result: binds
anti-H&L
  EC50 (read off the curve): ~4 nM
Murine recombinant LTβR
  binding result: binds

B2: mouse SIRPα-Fc-4-1BBL chimeric protein (Fc fusion)
chain: KELKVTQPEKSVSVAAGDSTVLNCTLTSLLPVGPIKWYRGVGQSRLLIYSFTGEHFPRVTNVSDATKRNNMDFSIRISNVTPEDAGTYYCVKFQKGPSEPDTEIQSGGGTEVYVLAKPSPPEVSGPADRGIPDQKVNFTCKSHGFSPRNITLKWFKDGQELHHLETTVNPSGKNVSYNISSTVRVVLNSMDVHSKVICEVAHITLDRSPLRGIANLSNFIRVSPTVKVTQQSPTSMNQVNLTCRAERFYPEDLQLIWLENGNVSRNDTPKNLTKNTDGTYNYTSLFLVNSSAHREDVVFTCQVKHDQQPAITRNHTVLGLAHSSDQGSMQTFPGNNATHNWNVPRDCGCKPCICTVPEVSSVFIFPPKPKDVLTITLTPKVTCVVVDISKDDPEVQFSWFVDDVEVHTAQTQPREEQFNSTFRSVSELPIMHQDWLNGKEFKCRVNSAAFPAPIEKTISKTKGRPKAPQVYTIPPPKEQMAKDKVSLTCMITDFFPEDITVEWQWNGQPAENYKNTQPIMDTDGSYFVYSKLNVQKSNWEAGNTFTCSVLHEGLHNHHTEKSLSHSPGIIEGRMDRTEPRPALTITTSPNLGTRENNADQVTPVSHIGCPNTTQQGSPVFAKLLAKNQASLCNTTLNWHSQDGAGSSYLSQGLRYEEDKKELVVDSPGLYYVFLELKLSPTFTNTGHKVQGWVSLVLQAKPQVDDFDNLALTVELFPCSMENKLVDRSWSQLLLLKAGHRLSVGLRAYLHGAQDAYRDWELSYPNTTSFGLFLVKPDNPWE
notes: also called mSIRPα-Fc-4-1BBL
Mouse CD47-Fc
  EC50: 22.4 nM
Mouse 4-1BB-His
  EC50: 0.674 nM
Mouse CD47-His
  EC50: 0.609 nM
